According to article PMC12397908, “Cryo-EM structures of the MnmE–MnmG complex reveal large conformational changes and provide new insights into the mechanism of tRNA modification” (Nucleic Acids Research, 2025):

B1: Escherichia coli MnmG (enzyme, E. coli)
chain: MFYPDPFDVIIIGGGHAGTEAAMAAARMGQQTLLLTHNIDTLGQMSCNPAIGGIGKGHLVKEVDALGGLMAKAIDQAGIQFRILNASKGPAVRATRAQADRVLYRQAVRTALENQPNLMIFQQAVEDLIVENDRVVGAVTQMGLKFRAKAVVLTVGTFLDGKIHIGLDNYSGGRAGDPPSIPLSRRLRELPLRVGRLKTGTPPRIDARTIDFSVLAQQHGDNPMPVFSFMGNASQHPQQVPCYITHTNEKTHDVIRSNLDRSPMYAGVIEGVGPRYCPSIEDKVMRFADRNQHQIFLEPEGLTSNEIYPNGISTSLPFDVQMQIVRSMQGMENAKIVRPGYAIEYDFFDPRDLKPTLESKFIQGLFFAGQINGTTGYEEAAAQGLLAGLNAARLSADKEGWAPARSQAYLGVLVDDLCTLGTKEPYRMFTSRAEYRLMLREDNADLRLTEIGRELGLVDDERWARFNEKLENIERERQRLKSTWVTPSAEAAAEVNAHLTAPLSREASGEDLLRRPEMTYEKLTTLTPFAPALTDEQAAEQVEIQVKYEGYIARQQDEIEKQLRNENTLLPATLDYRQVSGLSNEVIAKLNDHKPASIGQASRISGVTPAAISILLVWLKKQGMLRRSA
notes: E. coli MnmG in pET14b, preceded by an N-terminal His-tag and TEV cleavage site; domains described over residues 1-629; Homodimer (β2); also called EcMnmG; β2; source: E. coli BL21(DE3), purified (Ni-NTA IMAC, Superdex200 SEC)

How the values were obtained:
[1] = molecular target: the molecule itself; assay: cryo-EM structure; MnmE–MnmG complex formed with GppNHp, FAD and K+ (20 mM HEPES pH 7.5, 150 mM KCl, 5 mM MgCl2, 2 mM DTT), purified by SEC; α2β2 and α4β2 classes
Escherichia coli MnmG [2] = molecular target: B1; assay: ITC; MnmE 700 μM in the syringe, MnmG 70 μM in the cell; with 1 mM GppNHp; 25°C; 20 mM HEPES pH 7.5, 75 mM NaCl, 75 mM KCl, 5 mM MgCl2, 2 mM β-mercaptoethanol; one set of sites model; details: both partners purified
Escherichia coli MnmG [3] = molecular target: B1; assay: ITC; MnmE 700 μM in the syringe, MnmG 70 μM in the cell; no ligands; 25°C; 20 mM HEPES pH 7.5, 75 mM NaCl, 75 mM KCl, 5 mM MgCl2, 2 mM β-mercaptoethanol; one set of sites model; details: both partners purified
Escherichia coli MnmG [4] = molecular target: B1; assay: ITC; wild-type or mutant MnmE 700 μM in the syringe, MnmG 70 μM in the cell; with 1 mM FAD and 1 mM GppNHp; 25°C; 20 mM HEPES pH 7.5, 75 mM NaCl, 75 mM KCl, 5 mM MgCl2, 2 mM β-mercaptoethanol; one set of sites model; details: both partners purified
Escherichia coli MnmG [5] = molecular target: B1; assay: ITC; MnmE 700 μM in the syringe, MnmG 70 μM in the cell; with 1 mM FAD; 25°C; 20 mM HEPES pH 7.5, 75 mM NaCl, 75 mM KCl, 5 mM MgCl2, 2 mM β-mercaptoethanol; one set of sites model; details: both partners purified

| Kd (Escherichia coli MnmG [2]) [nM] | stoichiometry N (Escherichia coli MnmG [2]) | Kd (Escherichia coli MnmG [3]) [µM] | stoichiometry N (Escherichia coli MnmG [3]) | Kd (Escherichia coli MnmG [4]) [nM] | stoichiometry N (Escherichia coli MnmG [4]) | Kd (Escherichia coli MnmG [5]) [nM] | stoichiometry N (Escherichia coli MnmG [5]) | Binder | stoichiometry N [1] |
| --- | --- | --- | --- | --- | --- | --- | --- | --- | --- |
| – | – | – | – | – | – | – | – | B1 | 2 |
| 770 | 1.1 | 3.4 | 0.9 | 420 | 0.6 | 800 | 0.8 | Escherichia coli MnmE (wild type) (enzyme, E. coli, UniProt P25522 1-454, looked up, E. coli MnmE, wild-type open reading frame in pET20b, preceded by an N-terminal His-tag and TEV cleavage site; 454 residues (K454 is the C-terminal residue); Homodimer (α2); also called EcMnmE; α2; source: E. coli BL21(DE3), purified (Ni-NTA IMAC, alkaline phosphatase treatment, second Ni-NTA, Superdex200 SEC)) MSDNDTIVAQATPPGRGGVGILRISGFKAREVAETVLGKLPKPRYADYLPFKDADGSVLDQGIALWFPGPNSFTGEDVLELQGHGGPVILDLLLKRILTIPGLRIARPGEFSERAFLNDKLDLAQAEAIADLIDASSEQAARSALNSLQGAFSARVNHLVEALTHLRIYVEAAIDFPDEEIDFLSDGKIEAQLNDVIADLDAVRAEARQGSLLREGMKVVIAGRPNAGKSSLLNALAGREAAIVTDIAGTTRDVLREHIHIDGMPLHIIDTAGLREASDEVERIGIERAWQEIEQADRVLFMVDGTTTDAVDPAEIWPEFIARLPAKLPITVVRNKADITGETLGMSEVNGHALIRLSARTGEGVDVLRNHLKQSMGFDTNMEGGFLARRRHLQALEQAAEHLQQGKAQLLGAWAGELLAEELRLAQQNLSEITGEFTSDDLLGRIFSSFCIGK | 2 |
| – | – | – | – | 2200 | 0.5 | – | – | Escherichia coli MnmE K454A (enzyme, E. coli, UniProt P25522 1-454, looked up, E. coli MnmE point variant made by QuikChange from the wild-type open reading frame in pET20b; Variant of m1; source: E. coli BL21(DE3), purified (Ni-NTA IMAC, alkaline phosphatase treatment, second Ni-NTA, Superdex200 SEC)) MSDNDTIVAQATPPGRGGVGILRISGFKAREVAETVLGKLPKPRYADYLPFKDADGSVLDQGIALWFPGPNSFTGEDVLELQGHGGPVILDLLLKRILTIPGLRIARPGEFSERAFLNDKLDLAQAEAIADLIDASSEQAARSALNSLQGAFSARVNHLVEALTHLRIYVEAAIDFPDEEIDFLSDGKIEAQLNDVIADLDAVRAEARQGSLLREGMKVVIAGRPNAGKSSLLNALAGREAAIVTDIAGTTRDVLREHIHIDGMPLHIIDTAGLREASDEVERIGIERAWQEIEQADRVLFMVDGTTTDAVDPAEIWPEFIARLPAKLPITVVRNKADITGETLGMSEVNGHALIRLSARTGEGVDVLRNHLKQSMGFDTNMEGGFLARRRHLQALEQAAEHLQQGKAQLLGAWAGELLAEELRLAQQNLSEITGEFTSDDLLGRIFSSFCIGA | – |
| – | – | – | – | 4100 | 0.8 | – | – | Escherichia coli MnmE-Δ436–454 (domain or fragment, E. coli, UniProt P25522 1-435, looked up, E. coli MnmE without the entire C-terminal swivel helix (deletion of residues 436-454; K454 is the C-terminal residue of MnmE); C-terminal truncation of m1; made from the wild-type open reading frame in pET20b; source: E. coli BL21(DE3), purified (Ni-NTA IMAC, alkaline phosphatase treatment, second Ni-NTA, Superdex200 SEC)) MSDNDTIVAQATPPGRGGVGILRISGFKAREVAETVLGKLPKPRYADYLPFKDADGSVLDQGIALWFPGPNSFTGEDVLELQGHGGPVILDLLLKRILTIPGLRIARPGEFSERAFLNDKLDLAQAEAIADLIDASSEQAARSALNSLQGAFSARVNHLVEALTHLRIYVEAAIDFPDEEIDFLSDGKIEAQLNDVIADLDAVRAEARQGSLLREGMKVVIAGRPNAGKSSLLNALAGREAAIVTDIAGTTRDVLREHIHIDGMPLHIIDTAGLREASDEVERIGIERAWQEIEQADRVLFMVDGTTTDAVDPAEIWPEFIARLPAKLPITVVRNKADITGETLGMSEVNGHALIRLSARTGEGVDVLRNHLKQSMGFDTNMEGGFLARRRHLQALEQAAEHLQQGKAQLLGAWAGELLAEELRLAQQNLSEITG | – |
| – | – | – | – | 1700 | 0.6 | – | – | Escherichia coli MnmE-Δ450–454 (domain or fragment, E. coli, UniProt P25522 1-449, looked up, E. coli MnmE without the C-terminal conserved 450FCIGK454 motif (deletion of residues 450-454; K454 is the C-terminal residue of MnmE); C-terminal truncation of m1; made from the wild-type open reading frame in pET20b; source: E. coli BL21(DE3), purified (Ni-NTA IMAC, alkaline phosphatase treatment, second Ni-NTA, Superdex200 SEC)) MSDNDTIVAQATPPGRGGVGILRISGFKAREVAETVLGKLPKPRYADYLPFKDADGSVLDQGIALWFPGPNSFTGEDVLELQGHGGPVILDLLLKRILTIPGLRIARPGEFSERAFLNDKLDLAQAEAIADLIDASSEQAARSALNSLQGAFSARVNHLVEALTHLRIYVEAAIDFPDEEIDFLSDGKIEAQLNDVIADLDAVRAEARQGSLLREGMKVVIAGRPNAGKSSLLNALAGREAAIVTDIAGTTRDVLREHIHIDGMPLHIIDTAGLREASDEVERIGIERAWQEIEQADRVLFMVDGTTTDAVDPAEIWPEFIARLPAKLPITVVRNKADITGETLGMSEVNGHALIRLSARTGEGVDVLRNHLKQSMGFDTNMEGGFLARRRHLQALEQAAEHLQQGKAQLLGAWAGELLAEELRLAQQNLSEITGEFTSDDLLGRIFSS | – |
